The values that follow come from US20140302021A1 (ONCLAVE THERAPEUTICS, published 2014).

No end group written: not given here.

The target of this test is T1, CGGHEDT (SEQ ID NO: 17) conjugated to Ovalbumin (also: conjugated to ovalbumin).
T1 construct: Peptide-carrier conjugate used as the ELISA antigen
T1 peptide: CGGHEDT
The test is described as follows: competitive binding ELISA. From the text: A competitive binding ELISA has been established to measure binding of humanized 2A4 to its antigen (CGGHEDT (SEQ ID NO: 17) when conjugated to Ovalbumin) compared to the reference standard.

B1: humanized 2A4 antibody (IgG1, kappa isotype version of murine 2A4) (antibody, V domains shown)
VH: EVQLVESGGGLVQPGGSLRLSCAASGFTFNTYAMYWIRQAPGKGLEWVARIRSKSNNYAIYYADSVKDRFTISRDDSKNSLYLQMNSLKTEDTAVYYCARPYSDSFAYWGQGTLVTVSS
VL: DVVMTQSPLSLPVTPGEPASISCRSSQSLVHSTGNTYLHWYLQKPGQSPQLLIYKVSNRFSGVPDRFSGSGSGTDFTLKISRVEAEDVGVYYCSQSTHVPFTFGGGTKVEIKR
modifications: N-linked glycosylation at the consensus sequence, positions 299 to 301
notes: Human IgG1 of G1m(3) allotype, kappa; also called h2A4; humanized 2A4 drug substance
On to B1, for which the binding result is given as “binds”.
